Laboratory results published in paper PMC2962900, “Kinetics of Methylation by EcoP1I DNA Methyltransferase” (Enzyme Research, 2010).

Columns and labels:
[1] = substrate: C[S+](CC[C@H](N)C(=O)O)C[C@H]1O[C@@H](n2cnc3c(N)ncnc32)[C@H](O)[C@@H]1O; experiment: purified protein; details: Mg2+; DNA 1 μM (which DNA not stated); enzyme 400 nM; AdoMet 50 nM-2 μM; 30 min; labelled compound
[2] = biological target: the molecule itself; experiment: SEC; Superose 6 HR 10/30, buffer B (10 mM Tris-HCl pH 7.4, 100 mM NaCl, 0.1 mM EDTA, 10% glycerol, 7 mM beta-mercaptoethanol), 0.2 mL/min; 3-15 uM M.EcoP1I loaded; column calibrated with marker proteins

| Protein | Km [1] | stoichiometry N [2] |
| --- | --- | --- |
| EcoP1I DNA methyltransferase (M.EcoP1I) (Escherichia phage P1) (protein) MKKETIFSEVETANSKQLAVLKANFPQCFDKNGAFIQEKLLEIIRASEVELSKESYSLNWLGKSYARLLANLPPKTLLAEDKTHNQQEENKNSQNLLIKGDNLEVLKHMVNAYAEKVNMIYIDPPYNTGKDGFVYNDDRKFTPEQLSELAGIELDEANRILEFTTKGSSSHSAWLTFIYPRLYIARELLKEDGVIFISIDDNEDKQLGLLCDEVFGQGNFVAKLPTIMNLKGNHDNFGFSDTHEYIYVYAKNKDVCSLGQFDIDESEVEKEWDEDEYGLFKRADTLKRTGQDASRKSRPKGWFPVFINSENKVYVTDDDKPLNEDDYVLYPVSPTGEELSWSWGKKKINDEFYNLIVIDIKDGKNIYKKQRPALGELPTKKPKSIWYKPEYSTSTATTELKNLLGAKLFEGPKPVPLITDLVKIGTKKDSLVLDFFAGSGTTAEAVAYLNEKDSGCRNFICIQKDEVINKTKNAYSLGYRSIFEITKKRIQEVFKKSTTTSDNAAKIGFKVIHTIDDFRAKVESELTLTNHTFFDDAVLTPEQYDALLTTWCVYDGSLLTTPIEDVDLSGYTAHFCNGRLYLIAPNFTSEALKALLQKLDSDEDFAPNKVVFYGCNFESAKQRELNEALKSYANKKSIELDLVVRN | 0.5 µM | – |
| EcoP1I DNA methyltransferase (M.EcoP1I) (enzyme, bacteriophage P1, UniProt P08763 1-646, looked up, EcoP1I DNA methyltransferase, product of the mod gene of the EcoP1I Type III restriction-modification system of bacteriophage (prophage) P1; 1948 bp gene amplified with primers from the 5' and 3' ends of the open reading frame, cloned in the BamHI site of pET15b (construct pSN2); calculated mass ~75 kDa; No removal of the His6 tag is described. pET15b adds linker residues between the tag and the …) MKKETIFSEVETANSKQLAVLKANFPQCFDKNGAFIQEKLLEIIRASEVELSKESYSLNWLGKSYARLLANLPPKTLLAEDKTHNQQEENKNSQNLLIKGDNLEVLKHMVNAYAEKVNMIYIDPPYNTGKDGFVYNDDRKFTPEQLSELAGIELDEANRILEFTTKGSSSHSAWLTFIYPRLYIARELLKEDGVIFISIDDNEDKQLGLLCDEVFGQGNFVAKLPTIMNLKGNHDNFGFSDTHEYIYVYAKNKDVCSLGQFDIDESEVEKEWDEDEYGLFKRADTLKRTGQDASRKSRPKGWFPVFINSENKVYVTDDDKPLNEDDYVLYPVSPTGEELSWSWGKKKINDEFYNLIVIDIKDGKNIYKKQRPALGELPTKKPKSIWYKPEYSTSTATTELKNLLGAKLFEGPKPVPLITDLVKIGTKKDSLVLDFFAGSGTTAEAVAYLNEKDSGCRNFICIQKDEVINKTKNAYSLGYRSIFEITKKRIQEVFKKSTTTSDNAAKIGFKVIHTIDDFRAKVESELTLTNHTFFDDAVLTPEQYDALLTTWCVYDGSLLTTPIEDVDLSGYTAHFCNGRLYLIAPNFTSEALKALLQKLDSDEDFAPNKVVFYGCNFESAKQRELNEALKSYANKKSIELDLVVRN | – | 2 |
